From patent US20210033609A1 (EUROIMMUN MEDIZINISCHE LABORDIAGNOSTIKA, published 2021) come the findings set out here.

Series [1] concerns the molecule itself. The experiment in a line: self-association; analytical gel filtration (Superdex 200).
For series [2], the target named is T1, bovine Apolipoprotein A-I (Bos taurus, UniProt P15497 25-265).
T1 construct: also called bovine apolipoprotein A1; Apo AI[Bos taurus]
T1 sequence: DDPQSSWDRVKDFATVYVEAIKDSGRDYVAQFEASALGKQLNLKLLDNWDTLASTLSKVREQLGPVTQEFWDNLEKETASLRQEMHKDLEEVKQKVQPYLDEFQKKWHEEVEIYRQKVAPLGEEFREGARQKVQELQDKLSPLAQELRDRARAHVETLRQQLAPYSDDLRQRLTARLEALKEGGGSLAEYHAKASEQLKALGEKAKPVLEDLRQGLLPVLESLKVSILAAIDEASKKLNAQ
The experiment in a line: co-purification from cell culture supernatant on nickel affinity resin via the His tag of NS1.

B1: sNS1 (recombinant Zika virus NS1 purified from HEK293T culture supernatant) (other)
chain: GPMDVGCSVDFSKKETRCGTGVFVYNDVEAWRDRYKYHPDSPRRLAAAVKQAWEEGICGISSVSRMENIMWKSVEGELNAILEENGVQLTVVVGSVKNPMWRGPQRLPVPVNELPHGWKAWGKSYFVRAAKTNNSFVVDGDTLKECPLKHRAWNSFLVEDHGFGVFHTSVWLKVREDYSLECDPAVIGTAVKGKEAAHSDLGYWIESEKNDTWRLKRAHLIEMKTCEWPKSHTLWTDGVEESDLIIPKSLAGPLSHHNTREGYRTQVKGPWHSEELEIRFEECPGTKVHVEETCGTRGPSLRSTTASGRVIEEWCCRECTMPPLSFRAKDGCWYGMEIRPRKEPESNLVRSMVTALEHHHHHHHH
notes: Secreted form purified in the presence of 0.1% Triton X-100; Gel filtration: mainly hexamer (227 kDa); also called NS1[ZIKV]; soluble NS1 purified from cell culture supernatant
Consider B1, for which the binding result in series [1] and in series [2] was “binds” in each case.

B2: mNS1 (recombinant Zika virus NS1 purified from HEK293T cell lysate) (other)
chain: B1 chain
notes: Expressed in HEK293T from pTriEx-1; Gel filtration: mainly hexamer (212 kDa) with an extra monomer peak (44 kDa); SDS gives a dimer, heat gives a monomer; also called NS1[ZIKV]; membranous NS1 purified from cells
In the case of B2, the binding result in series [1] is listed as “binds”.
